The results in this text go back to paper PMC10844294.

For this test, the target named is 17T2 mAb de-glycosylated with PNGase F (human). The test is described as follows: SPR. (In general: Surface plasmon resonance follows binding to a sensor surface in real time, without labels.)
17T2 mAb de-glycosylated with PNGase F (human), sequence (heavy, as listed by the source, chain 1 of 2): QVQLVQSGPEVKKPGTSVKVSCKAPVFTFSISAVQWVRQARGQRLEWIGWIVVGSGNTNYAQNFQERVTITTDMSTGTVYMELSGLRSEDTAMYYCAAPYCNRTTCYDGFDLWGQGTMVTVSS
17T2 mAb de-glycosylated with PNGase F (human), sequence (light, as listed by the source, chain 2 of 2): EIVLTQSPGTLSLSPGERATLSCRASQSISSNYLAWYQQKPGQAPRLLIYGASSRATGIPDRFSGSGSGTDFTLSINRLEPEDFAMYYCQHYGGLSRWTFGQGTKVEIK

Broadly, the Kd is the constant that tells how readily two partners part at equilibrium. Low readings indicate higher affinity, high ones lower affinity. Usually koff stands for the first-order rate constant of dissociation. A lower koff goes with slow dissociation. One may read the kon as the second-order rate constant of association. Read a high kon as faster complex formation. “SARS-CoV-2 spike receptor binding domain, ancestral WH1 (from UniProt P0DTC2 319-541) (domain or fragment)” yielded a Kd of 0.0749 nM, a koff of 0.00013 s⁻¹ and a kon of 1.74e+06 M⁻¹ s⁻¹.
